# According to patent US20030113711A1, “Protein kinase peptide substrate determination using peptide libraries” (priority 2001, published 2003):
# B1: ErbB-4 (Homo sapiens) (protein)
# chain: QSVCAGTENKLSSLSDLEQQYRALRKYYENCEVVMGNLEITSIEHNRDLSFLRSVREVTGYVLVALNQFRYLPLENLRIIRGTKLYEDRYALAIFLNYRKDGNFGLQELGLKNLTEILNGGVYVDQNKFLCYADTIHWQDIVRNPWPSNLTLVSTNGSSGCGRCHKSCTGRCWGPTENHCQTLTRTVCAEQCDGRCYGPYVSDCCHRECAGGCSGPKDTDCFACMNFNDSGACVTQCPQTFVYNPTTFQLEHNFNAKYTYGAFCVKKCPHNFVVDSSSCVRACPSSKMEVEENGIKMCKPCTDICPKACDGIGTGSLMSAQTVDSSNIDKFINCTKINGNLIFLVTGIHGDPYNAIEAIDPEKLNVFRTVREITGFLNIQSWPPNMTDFSVFSNLVTIGGRVLYSGLSLLILKQQGITSLQFQSLKEISAGNIYITDNSNLCYYHTINWTTLFSTINQRIVIRDNRKAENCTAEGMVCNHLCSSDGCWGPGPDQCLSCRRFSRGRICIESCNLYDGEFREFENGSICVECDPQCEKMEDGLLTCHGPGPDNCTKCSHFKDGPNCVEKCPDGLQGANSFIFKYADPDRECHPCHPNCTQGCNGPTSHDCIYYPWTGHSTLPQHARTPLIAAGVIGGLFILVIVGLTFAVYVRRKSIKKKRALRRFLETELVEPLTPSGTAPNQAQLRILKETELKRVKVLGSGAFGTVYKGIWVPEGETVKIPVAIKILNETTGPKANVEFMDEALIMASMDHPHLVRLLGVCLSPTIQLVTQLMPHGCLLEYVHEHKDNIGSQLLLNWCVQIAKGMMYLEERRLVHRDLAARNVLVKSPNHVKITDFGLARLLEGDEKEYNADGGKMPIKWMALECIHYRKFTHQSDVWSYGVTIWELMTFGGKPYDGIPTREIPDLLEKGERLPQPPICTIDVYMVMVKCWMIDADSRPKFKELAAEFSRMARDPQRYLVIQGDDRMKLPSPNDSKFFQNLLDEEDLEDMMDAEEYLVPQAFNIPPPIYTSRARIDSNRSEIGHSPPPAYTPMSGNQFVYRDGGFAAEQGVSVPYRAPTSTIPEAPVAQGATAEIFDDSCCNGTLRKPVAPHVQEDSSTQRYSADPTVFAPERSPRGELDEEGYMTPMRDKPKQEYLNPVEENPFVSRRKNGDLQALDNPEYHNASNGPPKAEDEYVNEPLYLNTFANTLGKAEYLKNNILSMPEKAKKAFDNPDYWNHSLPPRSTLQHPDYLQEYSTKYFYKQNGRIRPIVAENPEYLSEFSLKPGTVLPPPPYRHRNTVV
# Key:
# Format in all cases: biochemical
# [1] = substrate: CC[C@H](C)[C@H](NC(=O)[C@H](CCC(=O)O)NC(=O)[C@H](CCC(=O)O)NC(=O)[C@H](Cc1c[nH]cn1)NC(=O)[C@H](C)NC(=O)[C@H](CCCNC(=N)N)NC(=O)CCCCCNC(=O)CCCC[C@@H]1SC[C@@H]2NC(=O)N[C@@H]21)C(=O)N[C@@H](Cc1ccc(O)cc1)C(=O)N[C@@H](Cc1c[nH]cn1)C(=O)N[C@@H](Cc1ccccc1)C(=O)N[C@@H](Cc1ccccc1)C(=O)N[C@@H](Cc1ccccc1)C(=O)N[C@@H](C)C(=O)N[C@@H](CCCCN)C(=O)N[C@@H](CCCCN)C(=O)N[C@@H](CCCCN)C(N)=O; experiment: Kinetic evaluation of peptide substrates, varying peptide at fixed ATP (phosphocellulose filter, [γ-33P]ATP); conditions: other: ErbB-4; Km for peptide; ATP concentration >10 × Km (200 μM ATP); pH 7.5; 23.0 °C
# Experimental: (§1) Peptide sequences identified as preferred substrates for ErbB-2 using the methods described in Laboratory Example 3 were synthesized. The kcat and Km values for each peptide were determined as follows, using the kinases ErbB-2, ErbB-4, and EGFR.
# (§2) Reactions were performed in 96-well polystyrene round bottom plates in a final volume of 45 μL. Reaction mixtures contained 50 mM MOPS, pH 7.5, 10 mM MnCl2, 1 mM dithiothreitol (DTT), 200 μM ATP, 1.0 μCi [γ-^33P] ATP, and varying concentrations of peptide. The reaction was initiated by adding the purified kinase of interest and halted after 10 minutes at 23° C. (room temperature) by adding 45 μL of 0.5% phosphoric acid in water. A 75 μL aliquot of the halted reaction mixture was then transferred to MAPH phosphocellulose filter plates (Millipore, Bedford, Mass.). The plates were filtered three times with 0.2 mL of 0.5 percent phosphoric acid. Scintillation cocktail (50 μL) was added to each well, and the plate was analyzed by counting in a Packard TOPCOUNT® scintillation counter (Packard Instrument Co., Meriden, Conn.). In these assays, the concentration of ATP was greater than ten-fold higher than the Km for ATP, which permitted the kinetic data to be treated as a pseudo-first-order reaction with varying peptide concentration. All experiments were performed in quadruplicate and the average value for each data point was analyzed. The Km and Vmax values were calculated by fitting the data to the Henri-Michaelis-Menten equation by non-linear regression using SIGMAPLOT® (SPSS Science, Chicago, Ill.). kcat values were calculated using the Vmax value, and are based on the protein concentration of the enzyme preparation and an estimate of purity determined from an evaluation of a Coomassie Blue stained SDS-polyacrylamide gel.
# [2] = substrate: CC[C@H](C)[C@H](NC(=O)[C@H](CCC(=O)O)NC(=O)[C@H](Cc1c[nH]cn1)NC(=O)[C@H](Cc1c[nH]cn1)NC(=O)[C@H](C)NC(=O)[C@H](CCCNC(=N)N)NC(=O)CCCCCNC(=O)CCCC[C@@H]1SC[C@@H]2NC(=O)N[C@@H]21)C(=O)N[C@@H](Cc1ccc(O)cc1)C(=O)N[C@@H](Cc1c[nH]cn1)C(=O)N[C@@H](Cc1ccccc1)C(=O)N[C@@H](Cc1ccccc1)C(=O)N[C@@H](Cc1ccccc1)C(=O)N[C@@H](C)C(=O)N[C@@H](CCCCN)C(=O)N[C@@H](CCCCN)C(=O)N[C@@H](CCCCN)C(N)=O; experiment: as above; conditions: other: ErbB-4; Km for peptide; ATP concentration >10 × Km (200 μM ATP); pH 7.5; 23.0 °C
# Experimental: as §1, §2
# [3] = substrate: CC[C@H](C)[C@H](NC(=O)[C@H](Cc1ccccc1)NC(=O)[C@H](Cc1c[nH]cn1)NC(=O)[C@H](Cc1ccc(O)cc1)NC(=O)[C@H](CCC(=O)O)NC(=O)[C@H](CCC(=O)O)NC(=O)[C@H](CCC(=O)O)NC(=O)[C@H](Cc1c[nH]cn1)NC(=O)[C@H](C)NC(=O)[C@H](CCCNC(=N)N)NC(=O)CCCCCNC(=O)CCCC[C@@H]1SC[C@@H]2NC(=O)N[C@@H]21)C(=O)N[C@@H](Cc1ccccc1)C(=O)N[C@@H](C)C(=O)N[C@@H](CCCCN)C(=O)N[C@@H](CCCCN)C(=O)N[C@@H](CCCCN)C(N)=O; experiment: as above; conditions: other: ErbB-4; Km for peptide; ATP concentration >10 × Km (200 μM ATP); pH 7.5; 23.0 °C
# Experimental: as §1, §2
# [4] = substrate: C[C@H](NC(=O)[C@H](CCCNC(=N)N)NC(=O)CCCCCNC(=O)CCCC[C@@H]1SC[C@@H]2NC(=O)N[C@@H]21)C(=O)N[C@@H](Cc1c[nH]cn1)C(=O)N[C@@H](CCC(=O)O)C(=O)N[C@@H](CCC(=O)O)C(=O)N[C@@H](CCC(=O)O)C(=O)N[C@@H](Cc1ccc(O)cc1)C(=O)N[C@@H](Cc1c[nH]cn1)C(=O)N[C@@H](Cc1ccccc1)C(=O)N[C@@H](Cc1ccccc1)C(=O)N[C@@H](Cc1ccccc1)C(=O)N[C@@H](C)C(=O)N[C@@H](CCCCN)C(=O)N[C@@H](CCCCN)C(=O)N[C@@H](CCCCN)C(N)=O; experiment: as above; conditions: other: ErbB-4; Km for peptide; ATP concentration >10 × Km (200 μM ATP); pH 7.5; 23.0 °C
# Experimental: as §1, §2
# [5] = substrate: CC[C@H](C)[C@H](NC(=O)[C@H](CC(=O)O)NC(=O)[C@H](CCC(=O)O)NC(=O)[C@H](CCSC)NC(=O)CNC(=O)CNC(=O)CCCCCNC(=O)CCCC[C@@H]1SC[C@@H]2NC(=O)N[C@@H]21)C(=O)N[C@@H](Cc1ccc(O)cc1)C(=O)N[C@@H](Cc1ccccc1)C(=O)N[C@@H](CCC(=O)O)C(=O)N[C@@H](Cc1ccccc1)C(=O)N[C@@H](CCSC)C(=O)NCC(=O)NCC(=O)N[C@@H](CCCCN)C(=O)N[C@@H](CCCCN)C(=O)N[C@@H](CCCCN)C(N)=O; experiment: Two-substrate kinetic comparison with known substrate, peptide and ATP varied simultaneously; conditions: other: ErbB-4; peptide and ATP concentrations varied simultaneously, two-substrate fit
# Experimental: (§3) In a separate experiment, the kinetic parameters of both peptide number 1 shown in Table 2, and a peptide with the sequence Biotin-Ahx-G-G-M-E-D-I-Y-F-E-F-M-G-G-K-K-K-amide (SEQ ID NO: 17), which has been previously identified as an ErbB-2 substrate (Jan et. al., (2000), Biochemistry 39: 9786-803), were determined and compared. In this experiment, both peptide and ATP concentrations were varied, and the resulting data was simultaneously fit to an equation representing a two-substrate enzyme reaction using SIGMAPLOT®. Data was collected using the kinases ErbB-2, ErbB-4, and EGFR. The results of this experiment are shown in Table 3 and indicate that for all three kinases tested, peptide number 1 shown in Table 2 is kinetically at least equivalent (based on kcat/Km values) to the known peptide substrate identified by Jan et al.
# [6] = substrate: CC[C@H](C)[C@H](NC(=O)[C@H](CCC(=O)O)NC(=O)[C@H](CCC(=O)O)NC(=O)[C@H](Cc1c[nH]cn1)NC(=O)[C@H](C)NC(=O)[C@H](CCCNC(=N)N)NC(=O)CCCCCNC(=O)CCCC[C@@H]1SC[C@@H]2NC(=O)N[C@@H]21)C(=O)N[C@@H](Cc1ccc(O)cc1)C(=O)N[C@@H](Cc1c[nH]cn1)C(=O)N[C@@H](Cc1ccccc1)C(=O)N[C@@H](Cc1ccccc1)C(=O)N[C@@H](Cc1ccccc1)C(=O)N[C@@H](C)C(=O)N[C@@H](CCCCN)C(=O)N[C@@H](CCCCN)C(=O)N[C@@H](CCCCN)C(N)=O; experiment: as above; conditions: other: ErbB-4; peptide and ATP concentrations varied simultaneously, two-substrate fit
# Experimental: as §3
protein,measurement,setting,value
B1,Km,[1],8 µM
same,kcat,[1],0.0683 s⁻¹
same,kcat/Km,[1],8500 M⁻¹ s⁻¹
same,Km,[2],37.6 µM
same,kcat,[2],0.0767 s⁻¹
same,kcat/Km,[2],2000 M⁻¹ s⁻¹
same,Km,[3],12.5 µM
same,kcat,[3],0.0217 s⁻¹
same,kcat/Km,[3],1670 M⁻¹ s⁻¹
same,Km,[4],6 µM
same,kcat,[4],0.015 s⁻¹
same,kcat/Km,[4],2500 M⁻¹ s⁻¹
same,Km,[5],144 µM
same,kcat,[5],0.0767 s⁻¹
same,kcat/Km,[5],533 M⁻¹ s⁻¹
same,Km,[6],41 µM
same,kcat,[6],0.105 s⁻¹
same,kcat/Km,[6],2500 M⁻¹ s⁻¹
